The source of these data is US20220026447A1 (SOONCHUNHYANG UNIVERSITY INDUSTRY ACADEMY COOPERATION …, published 2022).

The target of series [1] is T1, human FUS (fused in sarcoma) protein.
T1 chain: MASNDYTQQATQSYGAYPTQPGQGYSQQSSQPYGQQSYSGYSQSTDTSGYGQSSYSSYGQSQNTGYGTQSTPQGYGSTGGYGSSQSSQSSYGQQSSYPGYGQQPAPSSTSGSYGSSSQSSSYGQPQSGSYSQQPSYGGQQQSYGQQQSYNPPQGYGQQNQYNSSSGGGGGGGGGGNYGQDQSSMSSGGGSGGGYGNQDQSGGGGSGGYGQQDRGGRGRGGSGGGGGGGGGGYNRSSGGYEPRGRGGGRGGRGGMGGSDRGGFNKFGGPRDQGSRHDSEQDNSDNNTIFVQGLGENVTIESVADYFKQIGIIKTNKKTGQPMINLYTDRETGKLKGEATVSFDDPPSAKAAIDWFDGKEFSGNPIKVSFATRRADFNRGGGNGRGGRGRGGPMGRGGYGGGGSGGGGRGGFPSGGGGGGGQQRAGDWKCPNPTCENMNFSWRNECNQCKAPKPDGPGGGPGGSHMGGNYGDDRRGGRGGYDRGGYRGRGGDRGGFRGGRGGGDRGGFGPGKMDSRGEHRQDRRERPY

Series [2] deals with T2, human FUS (fused in sarcoma) protein (human, UniProt P35637 1-526).
T2 construct: Human FUS was expressed in Drosophila neurons with the elav-Gal4 driver and seen as cytoplasmic aggregates; also called human wild-type FUS; FUS aggregate
T2 sequence: T1 chain
Description: immunofluorescence co-localisation in Drosophila brain neurons (anti-GstO2 / anti-FUS).

B1: Drosophila omega class glutathione transferase 2 (GstO2) (enzyme)
chain: MALPQKHFKRGSTKPELPEDGVPRFFSMAFCPFSHRVRLMLAAKHIEHHKIYVDLIEKPEWYKDFSPLGKVPALQLTGVKDQPTLVESLIIAEYLDQQYPQTRLFPTDPLQKALDKILIERFAPVVSAIYPVLTCNPNAPKDAIPNFENALDVFEVELGKRGTPYFAGQHIGIVDYMIWPWFERFPSMKINTEQKYELDTKRFEKLLKWRDLMTQDEVVQKTALDVQLHAEFQKSKTLGNPQYDIAFKGTP
notes: also called endogenous GstO2
As for B1, the “FUS glutathionylation and FUS aggregate formation (double immunofluorescence of fly brain tissue, anti-FUS / anti-GSH)” value in series [1] is “GstO2 coexpression inhibits an increase in formation of a FUS aggregate, and reduces FUS glutathionylation”. Further, the binding result in series [2] was “binds”.
